# Reference: patent US20220000982A1 (Novo Nordisk, published 2022)
# *1 amine or outer side, *2 acyl side, *3 side chain or, on linkers, in order; H or OH if unused. Where no end group is shown, it is not given here. Side-chain parts run from the residue outwards. [ ]: non-standard residue; d: D form. The star is where a group is joined. C20 diacid = O=C(O)CCCCCCCCCCCCCCCCCCC(=O)*; C18 diacid = O=C(O)CCCCCCCCCCCCCCCCC(=O)*; γGlu = O=C(O)[C@H](CCC(=O)[*:2])N[*:1]; Trx = NC[C@H]1CC[C@H](C(=O)O)CC1; Nle = CCCC[C@H](N)C(=O)O; AEEA = NCCOCCOCC(=O)O; Aib = CC(C)(N)C(=O)O
# T1: human GIP receptor (human, UniProt P48546 22-466)
# T1 sequence (looked up): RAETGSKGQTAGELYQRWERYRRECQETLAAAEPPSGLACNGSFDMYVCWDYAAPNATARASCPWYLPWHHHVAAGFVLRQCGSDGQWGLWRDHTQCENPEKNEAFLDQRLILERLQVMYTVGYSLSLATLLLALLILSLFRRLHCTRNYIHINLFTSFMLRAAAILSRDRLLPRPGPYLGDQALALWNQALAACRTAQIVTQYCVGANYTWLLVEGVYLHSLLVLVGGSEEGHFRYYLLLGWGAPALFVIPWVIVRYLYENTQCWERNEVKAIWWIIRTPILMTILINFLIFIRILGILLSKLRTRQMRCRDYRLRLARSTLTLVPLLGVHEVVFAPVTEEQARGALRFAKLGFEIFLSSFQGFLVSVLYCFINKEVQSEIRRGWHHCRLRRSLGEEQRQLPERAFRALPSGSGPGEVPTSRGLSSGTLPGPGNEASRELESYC
# Legend:
# Experiment in all cases: cell-based or functional assay
# human GLP-1 receptor = human GLP-1 receptor (human, UniProt P43220 24-463)
# human glucagon receptor = human glucagon receptor (human, UniProt P47871 26-477)
# Sequence of human glucagon receptor (P47871 26-477): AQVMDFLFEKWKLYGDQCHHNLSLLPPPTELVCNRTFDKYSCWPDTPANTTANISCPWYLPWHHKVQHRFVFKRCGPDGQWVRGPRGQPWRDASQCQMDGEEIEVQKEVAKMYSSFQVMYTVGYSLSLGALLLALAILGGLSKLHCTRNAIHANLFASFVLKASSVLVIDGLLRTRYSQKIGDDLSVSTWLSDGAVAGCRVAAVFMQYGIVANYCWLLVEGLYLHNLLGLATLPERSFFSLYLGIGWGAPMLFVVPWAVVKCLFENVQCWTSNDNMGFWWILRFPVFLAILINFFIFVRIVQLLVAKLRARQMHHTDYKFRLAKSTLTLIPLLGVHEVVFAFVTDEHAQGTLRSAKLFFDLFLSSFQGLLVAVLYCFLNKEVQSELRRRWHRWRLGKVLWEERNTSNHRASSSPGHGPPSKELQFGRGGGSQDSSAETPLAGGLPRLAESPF
# human GIP receptor = biological target: T1, human GIP receptor
Molecule,"EC50, hGIP-R CRE Luc, 0.2% HSA (human GIP receptor)",further results
hGIP(1-42) (from UniProt P09681 52-93) (ligand),,"EC50, hGLP-1-R CRE Luc, 0.2% HSA (human GLP-1 receptor): > 100000 pM; EC50, hGcg-R CRE Luc, 0.2% HSA (human glucagon receptor): > 100000 pM"
Ac-[dY]AEGTFISDYSIA[Nle]DKIRQQDFVK([AEEA-AEEA-γGlu-γGlu-γGlu-C18 diacid])WLLAQKG,43.1 pM,
Ac-[dY][Aib]EGTFISDYSIA[Nle]DKIRQQDFVK([γGlu-γGlu-γGlu-C18 diacid])WLLAQKP-NH2,21.2 pM,"EC50, hGLP-1-R CRE Luc, 0.2% HSA (human GLP-1 receptor): > 100000 pM"
Y[Aib]EGTFISDYSIA[Nle]DKIHQQDFVK([γGlu-γGlu-γGlu-C18 diacid])WLLAQKGKEEDWKHNITQ,9 pM,"EC50, hGLP-1-R CRE Luc, 0.2% HSA (human GLP-1 receptor): > 100000 pM; EC50, hGcg-R CRE Luc, 0.2% HSA (human glucagon receptor): > 100000 pM"
Y[Aib]EGTFISDYSIA[Nle]DKIRQQDFVK([AEEA-AEEA-γGlu-Trx-C20 diacid])WLLAQKGKEEDWKHNITQ,14 pM,
Y[Aib]EGTFISDYSIA[Nle]DKIHQEDFVK([γGlu-γGlu-γGlu-γGlu-Trx-C20 diacid])WLLAQKG,810 pM,
Y[Aib]EGTFISDYSIA[Nle]DKIRQ[Aib]DFVK([γGlu-γGlu-γGlu-Trx-C20 diacid])WLLAQKG,71.2 pM,
Ac-[dY][Aib]EGTFISDYSIA[Nle]DKIHQQDFVK([γGlu-γGlu-γGlu-Trx-C20 diacid])WLLAQKP-NH2,38.4 pM,
Ac-[dY]AEGTFISDYSIA[Nle]DKIRQQDFVK([γGlu-γGlu-γGlu-Trx-C20 diacid])WLLAQKP-NH2,76.2 pM,
Ac-[dY]AEGTFISDYSIA[Nle]DKIRQQDFVK([γGlu-γGlu-γGlu-C18 diacid])WLLAQKG,48.9 pM,
Ac-YAEGTFISDYSIA[Nle]DKIRQQDFVK([γGlu-γGlu-γGlu-C18 diacid])WLLAQKG,546 pM,
Y[Aib]EGTFISDYSIA[Nle]DKIRQQDFVK([γGlu-γGlu-γGlu-Trx-C20 diacid])WLLAQKGKEEDWKHNITQ,22 pM,
Ac-[dY]AEGTFISDYSIA[Nle]DKIRQEDFVK([AEEA-AEEA-γGlu-C18 diacid])WLLAQKG,25 pM,
Ac-[dY]AEGTFISDYSIA[Nle]DKIRQQDFVK([AEEA-AEEA-γGlu-C18 diacid])WLLAQKG,30.4 pM,
Y[Aib]EGTFISDYSIA[Nle]DKIRQ[Aib]DFVK([γGlu-γGlu-γGlu-C18 diacid])WLLAQKG,9.4 pM,
Ac-[dY]AEGTFISDYSIA[Nle]DKIHQEDFVK([γGlu-γGlu-γGlu-Trx-C20 diacid])WLLAQKG,547 pM,
YAEGTFISDYSIAMDKIHQQDFVNWLLAQKG (ligand) [hGIP(1-31)],2.24 pM,
Y[Aib]EGTFISDYSIA[Nle]DKIRQQDFVK([AEEA-AEEA-γGlu-Trx-C20 diacid])WLLAQKG,44.7 pM,
Y[Aib]EGTFISDYSIA[Nle]DKIRQEDFVK([γGlu-γGlu-γGlu-C18 diacid])WLLAQKG,62.9 pM,

Molecule,"EC50, hGIP-R CRE Luc, 0.2% HSA (human GIP receptor)",further results
HAEGTFTSDVSSYLEGQAAKEFIAWLVKGRG (ligand) [hGLP-1(7-37)],> 100000 pM,
Y[Aib]EGTFISDYSIA[Nle]DKIRQEDFVK([γGlu-γGlu-γGlu-Trx-C20 diacid])WLLAQKG,252 pM,
Ac-[dY]AEGTFISDYSIA[Nle]DKIHQQDFVK([γGlu-γGlu-γGlu-Trx-C20 diacid])WLLAQKP-NH2,71.2 pM,
Y[Aib]EGTFISDYSIA[Nle]DKIRQQDFVK([γGlu-γGlu-γGlu-Trx-C20 diacid])WLLAQKG,72.1 pM,
Y[Aib]EGTFISDYSIA[Nle]DAIRQQDFVK([γGlu-γGlu-γGlu-Trx-C20 diacid])WLLAQKG,266 pM,
Ac-[dY][Aib]EGTFISDYSIA[Nle]DKIRQQDFVK([γGlu-γGlu-γGlu-γGlu-Trx-C20 diacid])WLLAQKP-NH2,26.1 pM,"EC50, hGLP-1-R CRE Luc, 1% HSA (*) (human GLP-1 receptor): > 10000 pM; EC50, hGcg-R CRE Luc, 1% HSA (*) (human glucagon receptor): > 100000 pM"
Y[Aib]EGTFISDYSIA[Nle]DKIHQQDFVK([γGlu-γGlu-γGlu-C18 diacid])WLLAQKGKENDWKHNITQ,21.3 pM,"EC50, hGLP-1-R CRE Luc, 1% HSA (*) (human GLP-1 receptor): > 100000 pM; EC50, hGcg-R CRE Luc, 1% HSA (*) (human glucagon receptor): > 100000 pM"
Ac-[dY]AEGTFISDYSIADDKIRQEDFVK([AEEA-AEEA-γGlu-C18 diacid])WLLAQKG,91.5 pM,
Y[Aib]EGTFISDYSIA[Nle]DKIRQQDFVK([γGlu-γGlu-γGlu-Trx-C20 diacid])WLLAQKP-NH2,61.5 pM,
Y[Aib]EGTFISDYSIA[Nle]DKIHQQDFVK([γGlu-γGlu-γGlu-C18 diacid])WLLAQKG,49.9 pM,"EC50, hGLP-1-R CRE Luc, 1% HSA (*) (human GLP-1 receptor): > 100000 pM; EC50, hGcg-R CRE Luc, 1% HSA (*) (human glucagon receptor): > 100000 pM"
Y[Aib]EGTFISDYSIA[Nle]DKIHQQDFVK([AEEA-AEEA-γGlu-C18 diacid])WLLAQKGKEEDWKHNITQ,5.45 pM,"EC50, hGLP-1-R CRE Luc, 0.2% HSA (human GLP-1 receptor): > 100000 pM; EC50, hGcg-R CRE Luc, 0.2% HSA (human glucagon receptor): > 100000 pM"
Y[Aib]EGTFISDYSIA[Nle]DKIHQEDFVK([γGlu-γGlu-γGlu-γGlu-C18 diacid])WLLAQKG,158 pM,
Y[Aib]EGTFISDYSIA[Nle]DKIHQQDFVK([γGlu-γGlu-γGlu-Trx-C20 diacid])WLLAQKP-NH2,67.5 pM,
Y[Aib]EGTFISDYSIA[Nle]DAIRQQDFVK([γGlu-γGlu-γGlu-C18 diacid])WLLAQKG,72.5 pM,
Y[Aib]EGTFISDYSIA[Nle]DKIHQQDFVK([AEEA-AEEA-γGlu-C18 diacid])WLLAQKGKEDDWKHNITQ,5.97 pM,"EC50, hGLP-1-R CRE Luc, 0.2% HSA (human GLP-1 receptor): > 100000 pM; EC50, hGcg-R CRE Luc, 0.2% HSA (human glucagon receptor): > 100000 pM"
Ac-[dY]AEGTFISDYSIA[Nle]DKIRQQDFVK([γGlu-γGlu-γGlu-Trx-C20 diacid])WLLAQKG,180 pM,
Ac-[dY]AEGTFISDYSIA[Nle]DKIHQ[Aib]DFVK([γGlu-γGlu-γGlu-Trx-C20 diacid])WLLAQKG,153 pM,
Y[Aib]EGTFISDYSIA[Nle]DKIRQQDFVK([γGlu-γGlu-γGlu-C18 diacid])WLLAQKGKENDWKHNITQ,20.1 pM,"EC50, hGLP-1-R CRE Luc, 1% HSA (*) (human GLP-1 receptor): > 100000 pM; EC50, hGcg-R CRE Luc, 1% HSA (*) (human glucagon receptor): > 100000 pM"
Y[Aib]EGTFISDYSIA[Nle]DKIRQQDFVK([AEEA-AEEA-γGlu-C18 diacid])WLLAQKGKEEDWKHNITQ,4.12 pM,"EC50, hGLP-1-R CRE Luc, 0.2% HSA (human GLP-1 receptor): > 100000 pM; EC50, hGcg-R CRE Luc, 0.2% HSA (human glucagon receptor): > 100000 pM"
